Data as given in patent publication US20200291391A1, “CROSS-LINKED EPITOPES AND METHODS OF USE THEREOF” (Indi Molecular, Inc., priority 2019, published 2020).

Experiments:
[1] = molecular target: CD8 on CD8+ SupT1 cells (human) (UniProt P01732); experiment: flow cytometry on CD8+ SupT1 cells
[2] = molecular target: CD8 on CD8+ SupT1 cells (human) (UniProt P01732); experiment: flow cytometry on CD8+ SupT1 cells; remark: listed apart in the source
[3] = molecular target: CD8 on CD8+ SupT1 cells (human) (UniProt P01732); experiment: flow cytometry on CD8+ SupT1 cells; ligand at 1.3 µM
[4] = molecular target: CD8 on CD8+ SupT1 cells (human) (UniProt P01732); experiment: flow cytometry on CD8+ SupT1 cells; ligand at 4 µM, 4° C.
[5] = molecular target: CD8 on CD8+ SupT1 cells (human) (UniProt P01732); experiment: flow cytometry on CD8+ SupT1 cells; ligand at 0.05 µM
[6] = molecular target: CD8 on CD8+ SupT1 cells (human) (UniProt P01732); experiment: flow cytometry on CD8+ SupT1 cells; ligand at 4 µM
[7] = molecular target: CD8 on CD8+ SupT1 cells (human) (UniProt P01732); experiment: flow cytometry on CD8+ SupT1 cells; ligand at 0.4 µM
[8] = molecular target: CD8 on CD8+ SupT1 cells (human) (UniProt P01732); experiment: flow cytometry on CD8+ SupT1 cells; ligand at 4 µM, room temperature
[9] = molecular target: CD8 on CD8+ SupT1 cells (human) (UniProt P01732); experiment: flow cytometry on CD8+ SupT1 cells; ligand at 0.15 µM
[10] = molecular target: immobilized recombinant CD8 protein (UniProt P01732); experiment: solid-phase ELISA on immobilized recombinant CD8 protein

Sequence of CD8 on CD8+ SupT1 cells (human) (P01732 22-235): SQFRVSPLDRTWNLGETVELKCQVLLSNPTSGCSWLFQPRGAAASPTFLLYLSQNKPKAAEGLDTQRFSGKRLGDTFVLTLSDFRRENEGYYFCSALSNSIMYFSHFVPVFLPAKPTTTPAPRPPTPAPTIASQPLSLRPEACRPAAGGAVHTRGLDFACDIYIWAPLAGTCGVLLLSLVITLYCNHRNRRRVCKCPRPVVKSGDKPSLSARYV

Row | Substance | MFIR (Mean Fluorescence Intensity Ratio) (ratio relative to unstained) [1] | MFIR (Mean Fluorescence Intensity Ratio) (ratio relative to Biotin1k-PEG) [1] | further results
1 | Biotin-1kPEG-cy(krsah) (SEQ ID NO: 27) (peptide) | 1.6 | – | –
2 | Biotin-1kPEG-cy(tfpkk) (SEQ ID NO: 21) (peptide) | 1.8 | – | MFIR (Mean Fluorescence Intensity Ratio) (ratio relative to unstained) [3]: 1.1; MFIR (Mean Fluorescence Intensity Ratio) (ratio relative to unstained) [4]: 1.5; MFIR (Mean Fluorescence Intensity Ratio) (ratio relative to unstained) [5]: 1; MFIR (Mean Fluorescence Intensity Ratio) (ratio relative to unstained) [6]: 1.5; MFIR (Mean Fluorescence Intensity Ratio) (ratio relative to unstained) [7]: 1.1; MFIR (Mean Fluorescence Intensity Ratio) (ratio relative to unstained) [8]: 1.5; MFIR (Mean Fluorescence Intensity Ratio) (ratio relative to unstained) [9]: 1
3 | Biotin-1kPEG-yrpfy (SEQ ID NO: 31) (peptide) | – | 1.1 | –
4 | Biotin-1kPEG-nfyrr (SEQ ID NO: 32) (peptide) | – | 1.2 | EC50 [10]: 47 nM
5 | Biotin-1kPEG-yfrsr (SEQ ID NO: 33) (peptide) | – | 1.1 | –

Now from value to substance, other results behind:

Row | MFIR (Mean Fluorescence Intensity Ratio) (ratio relative to unstained) [1] | MFIR (Mean Fluorescence Intensity Ratio) (ratio relative to Biotin1k-PEG) [1] | Substance | further results
6 | 73.9 | – | Biotin anti-CD8a Ab (Clone RPA-T8) (antibody) | MFIR (Mean Fluorescence Intensity Ratio) (ratio relative to unstained) [2]: 86.6
7 | – | 1 | Biotin-1kPEG-yrsny (SEQ ID NO: 34) (peptide) | –
8 | 1.1 | – | Biotin-1kPEG-cy(snprk) (SEQ ID NO: 28) (peptide) | –
9 | – | 1.1 | Biotin-1kPEG-rftaf (SEQ ID NO: 37) (peptide) | –
10 | – | 1 | Biotin-1kPEG-rpyay (SEQ ID NO: 35) (peptide) | –
11 | – | 1.1 | Biotin-1kPEG-aykfn (SEQ ID NO: 36) (peptide) | –
12 | – | 2 | Biotin-1kPEG-vlyrr (SEQ ID NO: 30) (peptide) | EC50 [10]: 77 nM
